In a protein production outcome set (Wang et al. 2014):

Experiment: label from the status in PepcDB records

| Sequence | protein production |
| --- | --- |
| MSATAAARKRGKPASGAGAGAGAGKRRRKADSAGDRGKSKGGGKMNEEISSDSESESLAPRKPEEEEEEELEETAQEKKLRLAKLYLEQLRQQEEEKAEARAFEEDQVAGRLKEDVLEQRGRLQKLVAKEIQAPASADIRVLRGHQLSITCLVVTPDDSAIFSAAKDCSIIKWSVESGRKLHVIPRAKKGAEGKPPGHSSHVLCMAISSDGKYLASGDRSKLILIWEAQSCQHLYTFTGHRDAVSGLAFRRGTHQLYSTSHDRSVKVWNVAENSYVETLFGHQDAVAALDALSRECCVTAGGRDGTVRVWKIPEESQLVFYGHQGSIDCIHLINEEHMVSGADDGSVALWGLSKKRPLALQREAHGLRGEPGLEQPFWISSVAALLNTDLVATGSHSSCVRLWQCGEGFRQLDLLCDIPLVGFINSLKFSSSGDFLVAGVGQEHRLGRWWRIKEARNSVCIIPLRRVPVPPAAGS | failed |
| MKKLNSKGIRLSELMEKWRRRKKGHFAVYTNEGKRFVLPLDYLNHPMLQVLLQMAEDEFGTTIDGPLKVPCDGSLMDHIIMLVRRSMSHDYDDVEKSSTSSTCKGASISSLFRGQSQLQSLVS | failed |
| MMRHSSLRLIIGGLILLLFVLNVFSKEQGSHSHKRSHSAKRFSRDSNSARERRPNIILILTDDQDVELGSLNFMPRTLRLLRDGGAEFRHAYTTTPMCCPARSSLLTGMYVHNHMVFTNNDNCSSPQWQATHETRSYATYLSNAGYRTGYFGKYLNKYNGSYIPPGWREWGGLIMNSKYYNYSINLNGQKIKHGFDYAKDYYPDLIANDSIAFLRSSKQQNQRKPVLLTMSFPAPHGPEDSAPQYSHLFFNVTTHHTPSYDHAPNPDKQWILRVTEPMQPVHKRFTNLLMTKRLQTLQSVDVAVERVYNELKELGELDNTYIVYTSDHGYHLGQFGLIKGKSFPFEFDVRVPFLIRGPGIQASKVVNEIVLNVDLAPTFLDMGGVPTPQHMDGRSILPLLLSRNRAVRDNWPDSFLIESSGRRETAEQIAESRARLQIERRNMKLANSSLLEDFLEGAGESTTIVSSSSTAATLMSSTAQQPEDGEEEVETDNEEDDVDGDGAMDSSAAALEEDDLDDAAFEEGDEELDQEFQQNNDLPLAPYITKMMRLNSECSDPALLKNCLPGQKWKCVNEEGRWRKHKCKFHLQLEHQLAAMPRKQYQRNCACFTPDGVVYTKIRAPSAGLHRVNKRTHNGPGRRRNKREVFHTELPDEMEELLDLHQVVDQLVDHTHRSKRDLPASSNETIAQVIQQIQSTLEILELKFNEHELHASNSSGNSYERGEKYTKSGGHRCFVDATTAKVNCSNVIYDDEKTWRTSRTQIDMLIKLLKDKIGKLKEMKKQLRESNKQALAAGRRNDNRRRNDQSVLDSGAGPEFNMSYFTEISSTPRSNVVGQTEVFQGYGSASAFDSLEQTQSHRFTPRAECYCEPDVGENHADSKEMAREARRKLKEERQRKKERKRIKKARLEKECLSEKMNCFSHDNQHWRTAPLWNDSPFCFCMNANNNTYSCLRTINGTHNFLYCEFTTGLITFYNLTIDRFETINRAAGLTPGERSHMHDALDQLKSCRGRSCSIRRHQNHLEGGSSAPLLPINQVHRNNKRKHSPLAGAVGNYAFVGPRLDMEALPPIKRRKLSKYNRLTGSQQSHMKRRPWKQTPLQQSPRFLRTHSVTPAQA | failed |
| MHILSMIKSQLKLLFNNRLAVFAIILAPILLTFLVSYSSSSNSKTNVYFADQDNTEASRQLVNMLKNNHDLNLISSSESEIKNKVDDDNITVGVLINKGFGYKLQNNKALDITLIEDYDSVDGEKLSDIILSTENTLQKVNLDSKSISRVLSSNESSISNKIIKKINNGSGVKLLYKNLKSSQNVEDKNAQNLIGFLLMFLWFIVIQGFRTLIEEKENNTFNRIKGTPTNYSKYLLSKIIANYIFGMIIIAIILIVGKYGLKSKIINNVGPEIAILSIYLFSIVGLVMIFVPFVKKHQTFTIIGAAIMVLTGLLGGSFFSMDELQLPKAIEIISKFMPETWGIKSLKEVVFNNLSLGSQSQTILVLGIAGIVGLLISTIIVKIIDRTEKNF | failed |
| MMDSCIRIAGIIGESIVDGPGIRLVVFAQGCPHHCPGCHNPETHAYEGGKSVAIAEILQRLAMNPLLDGITLSGGEPFAQAAGFALLAQSARQRGFHVMTYSGYTYEELTASSEQNPAWALLLEQTDLLVDGPFQLAERNLLLPFRGSENQRVIDVQESLRQGKVVLASVLEHHHHHH | failed |
| MTGTYTELIEGSERLSGLTDVDEVIKDLSRLLRKLVKTRWIAVYFFDRERRDFAPARSTGLPASFLPVFREMPLAPDKIPLLKSMLRKRQHLMLTDPGSSDLLTPKLRKLLRNLCVLAVPMVVRTQVIGAVFMARTRDNPPFSDAETAIIRDLVSHAALVVSHMQLFDE | not failed |
| MVGGVEELSIEQLASSISTYKEQLEQNFVCGLEFRIGEEKLNVRQLLSEDPRNSEYADMEKELKEVIALTEEVLATAKQNEISLSDAGVSAEATPGSPDLEGAWEKTGLRNDPIHEGKFPVGTKVQAVFSDDGEWYDATIEAHTANGYFVAYDEWGNKEEVDPDNVRPIEQNAIVEAERLAQATKNALKRKIEKAASSDYQTKTLPAKLKIDPNDPEDVKIAKRKKIHAFKSKARFEQLEVVQNKKQNDWQQFQTTKAKTKKVGFFTGRKKESIFKSPEDPFGKVGVTGSGKGLTDFQKREKHLHLKSGNAEGTDE | failed |
| RAELRGVVRVAASEVVGAEVLPPLVARLRQACPNIVIELMLSNRFQDLLHREADIAVRMVAPQQEQLIARRLGRIELGLHATAAYLTRQGLPATLDDLASHALIGFDSATPLVRRALQAYPRFQREAFAMRTDSDLAQLSLIRAGA | failed |
| MSAECWAALLHDPMTLDMDAVLSDFVRSTGAEPGLARDLLEGKNWDLTAALSDYEQLRQVHTANLPHVFNEGRG | not failed |
| MAVTISGVRKHSPAYRHGIQAGERLLTLNGNEIMDVLDYRFYQLNTALVLELENNRGERRTVSLKKPEYEEIGLEFETYLMDRQHSCKNKCVFCFIDQLPKGLRKSLYFKDDDSRLSFLFGNYVTLTNLTEHEISRIIKMHISPMNISVHTTNPELRVKMMKNPRAGEALSIIRRFAQAGIKINCQIVLCPGYNDGEELKRTLSDLETMCPQVQAVAVVPVGITRYRQNLPEMRSFTRETAGEAIDLIESFGEKCLQKYGTRVAYPGDEFYLKAERPLPPAGFYEDFSMLENGVGLLPLLMDEFYSALEEAGETGGRKREITIATGMAPREYIRGFLDDAIKKFPHISGRVTPIVNRFFGETITVSGLVTGTDLIEQLSSVDLGDELLIPACMLRREGDLFLDDVSLQDVEAALKVPVRPVPNDGYAFLDAILGSESLEHHHHHH | failed |
| MTQKNVITEVFDIVFIFVLAFACVVIPTVLQGAVLVSWEEGGAGIGFVWDPVGFFSFLLVIVAFFAVILYHSVKHYRY | failed |
| AIASQFDPDKFKQEQKARWNQGARSTWTLWKQTQVEDTPAKFFLGLVPIRPGVKVLDLACGSGETSLQVAQLVSSHLPSDSKDAKIVCVDISEEMLRVLSQRAQELGLSSVVETCCEDAENINFGTHYFDMVMSQFGVMFLPHLPEDLANIRKMMKPGSLFCCVVWGEEKDCHIFYAARSVVSPPPPPPGTPVSYGTKEKVMEALRKAEFSDVKAVEFQVVHETKDAEEYITLMSGVNQWLEKSLGEKGSGPWQKLVEYCNNSYRTSRGTLQFPNVCVGITAIA | failed |
| MWTDAGGQVHEAASGDVRIASLVPSITELLFDLGLADQLVARTGFCIHPEPAVRAVAKVGGTKDVKLDRLRALAPTHVVVNIDENRRETVDEIRTFVPHVIVTHPCAPEDNLALYRLLGGIFGRRPQAEALVGQLRGELDAIQAQTWPARRVLYAIWQDPWMTVSRATYISRMLALVNWATWPDDADTSDTPAACVDGDCSRPNAPGERYPTFRWSDALVRELDAVLLSTEPYRFTEDHADALERQIGKPVLLVDGEMLSWYGSRAVAGARYLRSLAQGFLEHHHHHH | not failed |
| WERLRMLLEVCQFSRDASVAEAWLIAQEPYLASGDFGHTVDSVEKLIKRHEAFEKSTASWAERFAALEKPTTLELKERQIA | failed |
| MGLFELNLAIILFIIGNFIGLEYSYRKYSSPYVEKGIDKFALAISVFGGILINSPLYMLGCLLIGFPLGMRPGYGRVEFVVGLAVALFLYFLRW | failed |
| MDGTEIAVSPRSLHSELMCPICLDMLKNTMTTKECLHRFCSDCIVTALRSGNKECPTCRKKLVSKRSLRPDPNFDALISKIYPSREEYEAHQDRVLIRLSRLHNQQALSSSIEEGLRMQAMHRAQRVRRPIPGSDQTTTMSGGEGEPGEGEGDGEDVSSDSAPDSAPGPAPKRPRGGGAGGSSVGTGGGGTGGVGGGAGSEDSGDRGGTLGGGTLGPPSPPGAPSPPEPGGEIELVFRPHPLLVEKGEYCQTRYVKTTGNATVDHLSKYLALRIALERRQQQEAGEPGGPGGGASDTGGPDGCGGEGGGAGGGDGPEEPALPSLEGVSEKQYTIYIAPGGGAFTTLNGSLTLELVNEKFWKVSRPLELCYAPTKDPK | failed |
| MTVTAPNALNFECETGNYHTFCPISCVAWLYQKIEDSFFLVIGTKTCGYFLQNAMGVMIFAEPRYAMAELEEGDISAQLNDYEELKRLCLEIKRDRNPSVIVWIGTCTTEIIKMDLEGLAPKLEAEIGIPIVVARANGLDYAFTQGEDTVLAAMAARCPTSTAISDPEERNPIQRLLNFGKKKEEVQAQSSQYHPHPPLVLFGSLPDPVVTQLTLELKKQGIKVSGWLPAKRYTELPVIDEGYYVAGVNPFLSRTATTLIRRRKCQLITAPFPIGPDGTRTWIEQICATFGIQPQGLAEREAETWQKLSDYLELVRGKSVFFMGDNLLEISLARFLIRCGMRVLEIGIPYMDKRYQAAELALLSQTCAEMGHPLPTIVEKPDNYNQLQRIKALQPDLVITGMAHANPLEARGISTKWSVEFTFAQIHGFGNARDILELVTRPLRRNQALAGLGWQKLVAH | not failed |
| MKSVSTWALSFFSDELSRRAVSDCYLWTTAISLLLILLLHIFFSTKFRFFTSAPSSSSSSSSSSSPSTESVPANSQSRISKLVSDEDLKFLIENLEEETNDSTEIWEHVIHKSNDRISYSAKRCKPKDGGGPMKYLSVTVFEGFSAEIVRDFYMDNDYRKLWDKTVVEHEQLQVDSNTGIEIGRTIKKFPLLTSREYVLAWRLWQGKEKKFYCFTKECDHNMVPQQRKYVRVSYFRSGWRIRQGNILSTFDTYLTDTFDTLAAVPGRNACEIKMFHQENAGLNVEMAKLAFSKGIWSYVCKMENALCKYIATSHRTQGPILSAVTLMKEVPSELETGTDNVTGSMETSSGEGVLSHVVAAKQKKKMRKPSTKLIAKGLVLVGGAICLSRGPSALGAKVALAYLLTKLNKRGTSLNQTTQTTTI | failed |
| MYRTTGPALRPGGFELTDWAVEHCRFQAGDRILDVGCGRGATVDRLRSHYHLEAYGIDPSATLLTLGQETYPDLPLSKARGEDIPFTNSCFDGVFVECSLSLMTDPDQALSEIRRVLKVKGKLIIHDVYARNPQGTPDLRELSIGTCIRNALVKEDLEHGLESKGLRTIHWQDHSPLLNRLMMELIMTHGSMSAFWLKSTHCSADSNRVQAALKKAKVGYFQLIAEKEAEKEAEHCPVR | failed |
| MSIKPKIMISSLDAERLEILLETLSQNAFPGRDDLEAELARAEVVDPEEIPPTVVTMNSTVRFRVESSAEEFCLTLVYPKDVDTSGEKISILAPVGSALLGLAQGDEIEWPKPGGGVLRVRIVEVTYQPERSGEYYR | not failed |
| MNFAGKHVGFGLTGSHCTYHEVLPQMERLVELGAKVTPFVTHTVQTTDTKFGESSEWINKIKQITEEPIVDSMVKAEPFGPKTPLDCMVIAPMTGNSTSKFANAMTDSPVLMGAKATLRNGKPVVVGISTNDALGLNGINIMRLMATKNIYFIPFGQDNPQVKPNSLVARMEALPETIEAALRGQQYQPVLIEKFRD | not failed |
| AADQVLELVRPFLEELRNISQETAVLGKRQDGQVIYLDVALSHQPIRYHVQVGESRAAHTNSIGKAIFPMLDEKEQKALLAKANWRALTSRTIATREAFLRDMAQTKARGWSSNVGESVEDLAAVALPFQLASEWYAVSIVGPYERMERNWDAHVETLLQTGARLRQAIAVHEGQ | failed |
